Assay results: US20110038941A1

Target: CD20 cell surface antigen (human) (UniProt P11836)
Assay: flow cytometry of FAM-ODN fluorescence on Raji cells

UniProt P11836, sequence (P11836 whole entry): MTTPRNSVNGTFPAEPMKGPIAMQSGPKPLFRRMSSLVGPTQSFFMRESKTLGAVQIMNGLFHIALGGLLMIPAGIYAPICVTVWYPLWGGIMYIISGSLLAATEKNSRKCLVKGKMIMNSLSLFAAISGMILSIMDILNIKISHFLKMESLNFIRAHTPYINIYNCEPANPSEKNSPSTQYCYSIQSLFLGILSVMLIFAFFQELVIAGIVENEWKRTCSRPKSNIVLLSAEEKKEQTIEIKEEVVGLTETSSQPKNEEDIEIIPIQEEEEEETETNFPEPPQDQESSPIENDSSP

Rituximab (anti-CD20 antibody) conjugated cationic immunoliposomes
fold fluorescence intensity of FAM-ODN against FAM-ODN loaded LP and Her ILP: 10 fold | fold fluorescence intensity of FAM-ODN against free FAM-ODN: 20 fold
